According to patent publication US20030143729A1, “DNA encoding taurine and GABA transporters and uses thereof” (Synaptic Pharmaceutical Corporation, priority 1992, published 2003):
Values joined by “and” are separate entries in the source; they are usually repeats but may differ in a detail not shown here. Identical values can stand only once.

Legend:
[1] = substrate: NCCCC(=O)O; test: cells, lysate or membranes; conditions: other: various concentrations of [3H]GABA, 30 seconds; pH 7.4; 37.0 °C
[2] = substrate: NCCS(=O)(=O)O; test: cells, lysate or membranes; conditions: other: various concentrations of [3H]taurine, 30 seconds, pH 7.4
Procedure: Transient transfections of COS cells with the plasmid pEVJB-rB16a were carried out using DEAE-dextran with DMSO according to the method of Lopata et al. (58) with minor modifications. COS cells were grown (37° C., 5%CO2) in high glucose Dulbecco's modified Eagle medium supplemented with 10% bovine calf serum, 100 U/ml penicillin G, and 100 μg/ml streptomycin sulfate. Cells were routinely used two days after transfection for transport studies.
Plates were incubated at 37° C. for 10 minutes unless indicated otherwise, then washed rapidly 3× with ice cold HBS. Cells were solubilized with 0.05% sodium deoxycholate/0.1N NaOH), an aliquot was neutralized with 1N HCl, and radioactivity was determined by scintillation counting. Protein was quantified in an aliquot of the solubilized cells using a BIO-RAD protein assay kit, according to the manufacturer's directions.

Protein | Km [1] | Km [2] [µM]
GAT-2 (Rattus norvegicus) (protein) MDNRVSGTTSNGETKPVCPVMEKVEEDGTLEREQWTNKMEFVLSVAGEIIGLGNVWRFPYLCYKNGGGAFFIPYLIFLFTCGIPVFFLETALGQYTNQGGITAWRKICPIFEGIGYASQMIVSLLNVYYIVVLAWALFYLFSSFTTDLPWGSCSHEWNTENCVEFQKTNNSLNVTSENATSPVIEFWERRVLKISDGIQHLGSLRWELVLCLLLAWIICYFCIWKGVKSTGKVVYFTATFPYLMLVVLLIRGVTLPGAAQGIQFYLYPNITRLWDPQVWMDAGTQIFFSFAICLGCLTALGSYNKYHNNCYRDCVALCILNSSTSFVAGFAIFSILGFMSQEQGVPISEVAESGPGLAFIAYPRAVVMLPFSPLWACCFFFMVVLLGLDSQFVCVESLVTALVDMYPRVFRKKNRREILILIVSVVSFFIGLIMLTEGGMYVFQLFDYYAASGMCLLFVAIFESLCVAWVYGASRFYDNIEDMIGYKPWPLIKYCWLFFTPAVCLATFLFSLIKYTPLTYNKKYTYPWWGDALGWLLALSSMVCIPAWSIYKLRTLKGPLRERLRQLVCPAEDLPQKSQPELTSPATPMTSLLRLTELESNC | 4 µM and 8 ± 3 µM | 
taurine transporter (rB16a) (Rattus norvegicus) (protein) MATKEKLQCLKDFHKDILKPSPGKSPGTRPEDEADGKPPQREKWSSKIDFVLSVAGGFVGLGNVWRFPYLCYKNGGGAFLIPYFIFLFGSGLPVFFLEVIIGQYTSEGGITCWEKICPLFSGIGYASIVIVSLLNVYYIVILAWATYYLFQSFQKDLPWAHCNHSWNTPQCMEDTLRRNESHWVSLSAANFTSPVIEFWERNVLSLSSGIDHPGSLKWDLALCLLLVWLVCFFCIWKGVRSTGKVVYFTATFPFAMLLVLLVRGLTLPGAGEGIKFYLYPNISRLEDPQVWIDAGTQIFFSYAICLGAMTSLGSYNKYKYNSYRDCMLLGCLNSGTSFVSGFAIFSILGFMAQEQGVDIADVAESGPGLAFIAYPKAVTMMPLPTFWSILFFIMLLLLGLDSQFVEVEGQITSLVDLYPSFLRKGYRREIFIAIVCSISYLLGLTMVTEGGMYVFQLFDYYAASGVCLLWVAFFECFVIAWIYGGDNLYDGIEDMIGYRPGPWMKYSWAVITPALCVGCFIFSLVKYVPLTYNKVYRYPDWAIGLGWGLALSSMVCIPLVIVILLCRTEGPLRVRIKYLITPREPNRWAVEREGATPFHSRATLMNGALMKPSHVIVETMM |  | 43 ± 6
